What was measured:
Experiment in all cases: spectrophotometric hydrolysis assay, fit with product inhibition
Type in all cases: biochemical, Escherichia coli
Conditions in all cases: 50 mM potassium phosphate, pH 8.0, 22 °C
[1] = tested on: T1, CC(=O)Nc1ccn([C@@H]2O[C@H](CO)[C@@H](O)[C@H]2O)c(=O)n1
T1 construct: full length (103 residues), C-terminal His6 kept, pET21b, expressed in E. coli BL21(DE3) yqfB::Km, monomer
From the text: (§1) spectrophotometric hydrolysis assay, fit with product inhibition on YqfB with a C-terminal His6 tag

CC(=O)Nc1cc[nH]c(=O)n1 = tested on: T2, CC(=O)Nc1cc[nH]c(=O)n1
T2 construct: full length (103 residues), C-terminal His6 kept, pET21b, expressed in E. coli BL21(DE3) yqfB::Km, monomer
From the text: as §1

[2] = substrate: CC(=O)Nc1nc(O)ncc1F
From the text: as §1

[3] = substrate: O=C(Nc1ccn([C@H]2C[C@H](O)[C@@H](CO)O2)c(=O)n1)c1ccccc1
From the text: as §1

[4] = substrate: CCCCCOC(=O)Nc1nc(=O)n([C@@H]2O[C@H](C)[C@@H](O)[C@H]2O)cc1F
From the text: as §1

[5] = substrate: CC(=O)Nc1ccn([C@@H]2O[C@H](CO)[C@@H](O)[C@H]2O)c(=O)n1
From the text: as §1

[6] = substrate: O=C(Nc1ccn([C@@H]2O[C@H](CO)[C@@H](O)[C@H]2O)c(=O)n1)c1ccccc1
From the text: as §1

[7] = substrate: CC(C)C(=O)Nc1ccn([C@H]2C[C@H](O)[C@@H](CO)O2)c(=O)n1
From the text: as §1

[8] = substrate: CC(=O)Nc1ccn([C@H]2C[C@H](O)[C@@H](CO)O2)c(=O)n1
From the text: as §1

[9] = substrate: CCCCCC(=O)Nc1ccn([C@H]2C[C@H](O)[C@@H](CO)O2)c(=O)n1
From the text: as §1

[10] = substrate: CC(=O)Nc1cc[nH]c(=O)n1
From the text: as §1

[11] = substrate: CC(=O)Nc1ccn([C@@H]2O[C@H](CO)[C@@H](O)[C@H]2O)c(=O)n1; remark: listed apart in the source
From the text: spectrophotometric hydrolysis assay, fit with product inhibition on recombinant YqfB with an N-terminal His6 tag

[12] = substrate: CC(=O)Nc1ccn([C@@H]2O[C@H](CO)[C@@H](O)[C@H]2O)c(=O)n1; remark: listed apart in the source
From the text: spectrophotometric hydrolysis assay, fit with product inhibition on recombinant wild-type YqfB (tag-free)

For “YqfB with a C-terminal His6 tag (Escherichia coli K-12; E74A)”, the Km [1] was “(2.0 ± 0.03) × 10^−6 M”, the kcat [1] was 0.07 ± 0.0006 s⁻¹ and the kcat/Km [1] was 30000 ± 500 M⁻¹ s⁻¹. For the same molecule, the Km (CC(=O)Nc1cc[nH]c(=O)n1) was “(3.0 ± 0.02) × 10^−4 M”, the kcat (CC(=O)Nc1cc[nH]c(=O)n1) was 0.22 ± 0.001 s⁻¹ and the kcat/Km (CC(=O)Nc1cc[nH]c(=O)n1) was 700 ± 4 M⁻¹ s⁻¹.

For “YqfB with a C-terminal His6 tag (Escherichia coli K-12; Y89A)”, the Km [1] was “(2.2 ± 0.06) × 10^−3 M”, the kcat [1] was 40 ± 1.3 s⁻¹ and the kcat/Km [1] was 19000 ± 900 M⁻¹ s⁻¹.

For “YqfB with a C-terminal His6 tag (Escherichia coli K-12; D27A)”, the Km [1] was “(2.9 ± 0.11) × 10^−4 M”, the kcat [1] was 300 ± 16 s⁻¹ and the kcat/Km [1] was 1.2e+06 ± 10000 M⁻¹ s⁻¹.

“YqfB with a C-terminal His6 tag (Escherichia coli K-12; H70A)” was tested, and the Km [1] was “(5.0 ± 0.02) × 10^−5 M”, the kcat [1] was 23 ± 0.029 s⁻¹ and the kcat/Km [1] was 400000 ± 2000 M⁻¹ s⁻¹.

B1: YqfB with a C-terminal His6 tag (Escherichia coli K-12) (protein)
chain: MQPNDITFFQRFQDDILAGRKTITIRDESESHFKTGDVLRVGRFEDDGYFCTIEVTATSTVTLDTLTEKHAEQENMTLTELKKVIADIYPGQTQFYVIEFKCL
notes: full length (103 residues), C-terminal His6 kept, pET21b, expressed in E. coli BL21(DE3) yqfB::Km, monomer
For B1, the Km [2] was “(2.1 ± 0.2) × 10^−3 M”, the kcat [2] was 90 ± 7 s⁻¹ and the kcat/Km [2] was 40000 ± 3000 M⁻¹ s⁻¹. The Km [3] was “(3.00 ± 0.01) × 10^−4 M”, the kcat [3] was 0.07 ± 0.01 s⁻¹ and the kcat/Km [3] was 230 ± 10 M⁻¹ s⁻¹. The Km [4] was “(7.0 ± 0.2) × 10^−4 M”, the kcat [4] was 0.016 ± 0.003 s⁻¹ and the kcat/Km [4] was 22 ± 0.1 M⁻¹ s⁻¹. For the same molecule, the Km [5] was “(6.2 ± 0.1) × 10^−5 M”, the kcat [5] was 157 ± 1 s⁻¹ and the kcat/Km [5] was 2.2e+06 ± 100000 M⁻¹ s⁻¹. For the same molecule, the Km [6] was “(5.1 ± 0.03) × 10^−3 M”, the Km [7] was “(1.9 ± 0.08) × 10^−3 M” and the kcat [7] was 75 ± 3 s⁻¹. For the same molecule, the kcat/Km [7] was 37500 ± 600 M⁻¹ s⁻¹, the Km [8] was “(4.00 ± 0.04) × 10^−4 M” and the kcat [8] was 101 ± 1 s⁻¹. The kcat/Km [8] was 230000 ± 2000 M⁻¹ s⁻¹, the Km [9] was “(1.4 ± 0.1) × 10^−4 M” and the Km [10] was “(7.0 ± 0.2) × 10^−5 M”.

B2: recombinant YqfB with an N-terminal His6 tag (Escherichia coli K-12) (protein)
chain: MQPNDITFFQRFQDDILAGRKTITIRDESESHFKTGDVLRVGRFEDDGYFCTIEVTATSTVTLDTLTEKHAEQENMTLTELKKVIADIYPGQTQFYVIEFKCL
notes: full length (103 residues), N-terminal His6 kept, pETDuet-1, expressed in E. coli BL21(DE3) yqfB::Km
With B2 the Km [11] was “(7.0 ± 0.1) × 10^−5 M”, the kcat [11] was 154 ± 3 s⁻¹ and the kcat/Km [11] was 2.5e+06 ± 200000 M⁻¹ s⁻¹.

B3: recombinant wild-type YqfB (tag-free) (Escherichia coli K-12) (protein)
chain: MQPNDITFFQRFQDDILAGRKTITIRDESESHFKTGDVLRVGRFEDDGYFCTIEVTATSTVTLDTLTEKHAEQENMTLTELKKVIADIYPGQTQFYVIEFKCL
notes: full length (103 residues), no tag, pET21b-yqfB
With B3 the Km [12] was “(7.0 ± 0.1) × 10^−5 M”, the kcat [12] was 196 ± 1 s⁻¹ and the kcat/Km [12] was 2.8e+06 ± 300000 M⁻¹ s⁻¹.
